Assay results from publication PMC2195822 (The Journal of Experimental Medicine, 2000).
Like-named read-outs stand apart in the source and are kept apart here. No end group written: not given here.

What was measured:
[1] = Diffusion–sedimentation equilibrium; type: physicochemical; conditions: 150 μM peptide
AUC [2] = target: the molecule itself; test: AUC
AUC [3] = target: the molecule itself; test: AUC; remark: listed apart in the source
AUC [4] = target: the molecule itself; test: AUC; remark: listed apart in the source
AUC [5] = target: the molecule itself; test: AUC; remark: listed apart in the source

Molecule	stoichiometry N (AUC [2])	stoichiometry N (AUC [4])	also measured
SSTKKTQLQLQ [p5–15]	–	–	quaternary structure at 150 μM [1]: dimers
APTSSSTKKTQLQLEHLLLDLQMILNGINN-NH2 [peptide p1–30 (amino acids 1–30 of human IL-2, covering the entire α helix A)]	8	–	–
TQLQLEHLLLDLQMILNGINN [IL-2 peptide p10–30]	–	–	stoichiometry N (AUC [3]): 4
APTSSSTKKTQLQLEHLLLDLQMILNGINNC [IL-2 peptide p1–30Cys]	8	4	–
APTSSSTKKTQLQLEHLLLDLQMILNGINNC(fluorescein)-NH2 [p1–30Cys labeled on the terminal Cys31 with a fluorescein group (p1–30Cys-FLC)]	8	4	–
soluble IL-2Rβ 31–230 (residues 31–230 of the IL-2Rβ chain, most of the extracellular part) (domain or fragment, human, UniProt P14784 31-230, looked up) TSQFTCFYNSRANISCVWSQDGALQDTSCQVHAWPDRRRWNQTCELLPVSQASWACNLILGAPDSQKLTTVDIVTLRVLCREGVRWRVMAIQDFKPFENLRLMAPISLQVVHVETHRCNISWEISQASHYFERHLEFEARTLSPGHTWEEAPLLTLKQKQEWICLETLTPDTQYEFQVRVKPLQGEFTTWSPWSQPLAFR	–	–	Kd (AUC [5]): 3 µM; stoichiometry N (AUC [5]): 2
